Laboratory results: PMC5826061

Molecular target: T1, GlnR (Streptomyces coelicolor) (UniProt Q05943)
T1 sequence: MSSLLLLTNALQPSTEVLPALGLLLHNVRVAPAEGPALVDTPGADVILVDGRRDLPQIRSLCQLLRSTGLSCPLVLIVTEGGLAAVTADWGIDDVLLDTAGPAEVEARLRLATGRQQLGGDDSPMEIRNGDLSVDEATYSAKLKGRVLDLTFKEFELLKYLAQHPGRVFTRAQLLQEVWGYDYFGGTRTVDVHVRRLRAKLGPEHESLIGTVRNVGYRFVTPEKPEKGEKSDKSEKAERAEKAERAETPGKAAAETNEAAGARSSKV
Assay: DNase I footprinting
Settings: 50 mM Tris-HCl pH 8.0, 100 mM KCl, 2.5 mM MgCl2, 1 mM DTT, 10% glycerol; EMSA in 20 ul with 100 ng/ul sheared salmon sperm DNA, room temperature, 20 min …

Row | Sequence | binding
1 | GTAAAACGACGGCCAGTCCATGCCAGGTCATTCGGAGGCCGCCGCGGCCGGCTTGCGTTCCGGGCCGGACGGCCCGGGCACGACGACGACCGGCCCCGGCCGTTCACCCACGCGTAACACGCACCGTGCCTTCGTCACGGCGGCGAAACAACGAGGGGCTTCCACCGAAACCGCGCTGCGTCAATGTCGTGGCGCATAACCGGCCCACCCCTCACCGCCCGCCCGCCAGGCTTCGCCCCCACGGGGCCGCACCAACGACGAGGAGACGCCGATGTCTAGATTTTT (double strand) [amtB promoter WT footprint probe] | binds
2 | GTAAAACGACGGCCAGTCCATGCCAGGTCATTCGGAGGCCGCCGCGGCCGGCTTGCGTTCCGGGCCGGACGGCCCGGGCACGACGACGACCGGCCCCGGCCGTTCACCCACGCGTAACACGCACCGTGCCTTCGTCACGGCGGCGAAACAACGAGAAATCTCCACCGAAACCGCGCTGCGTCAATGTCGTGGCGCATAACCGGCCCACCCCTCACCGCCCGCCCGCCAGGCTTCGCCCCCACGGGGCCGCACCAACGACGAGGAGACGCCGATGTCTAGATTTTT (double strand) [amtB promoter a2m footprint probe] | binds
3 | GTAAAACGACGGCCAGTCCATGCCAGGTCATTCGGAGGCCGCCGCGGCCGGCTTGCGTTCCGGGCCGGACGGCCCGGGCACGACGACGACCGGCCCCGGCCGTTCACCCACGCGTAACACGCAGGGGCTTCCACCGAAACCGCGCTGCGTCAATGTCGTGGCGCATAACCGGCCCACCCCTCACCGCCCGCCCGCCAGGCTTCGCCCCCACGGGGCCGCACCAACGACGAGGAGACGCCGATGTCTAGATTTTT (double strand) [amtB promoter m3 footprint probe] | binds
